Measured values: the supplement of paper PMC7125110
± gives the standard error. For some assays here: Variants at the floor of the assay were thinned out.

B1: glmS ribozyme (parent)
chain: AUAAAAGCGCCAGAACUACAGAAAUGUAGUUGACGAGGAGGAGGUUUAUCGAAUUUUCGGCGGAUGCCUCCAAA

How the values were obtained:
Details in all cases: with glucosamine-6-phosphate
[1] = variants of: B1; assay: kcat; higher = faster cleavage; RNA array
Procedure, shortened: (§1)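 Weighted Michaelis–Menten fits across concentrations supplied kcat and KM, based on kobs from one- or two-exponential decay fits to normalised per-tile medians. The data came from barcoded ribozyme variants transcribed in situ by E. coli RNA polymerase on sequenced MiSeq chips and tracked at 37 °C by a hybridised Cy3 probe. Glucosamine-6-phosphate (40 μM to 10 mM) in HEPES/KCl/Mg(OAc)2 buffer was flowed in.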

[2] = variants of: B1; assay: KM; higher = weaker cofactor use; RNA array
Procedure, shortened: as §1

[3] = variants of: B1; assay: self-cleavage kobs at 40 uM GlcN6P; higher = faster cleavage; RNA array
Procedure, shortened: as §1

[4] = variants of: B1; assay: self-cleavage kobs at 160 uM GlcN6P; higher = faster cleavage; RNA array
Procedure, shortened: as §1

[5] = variants of: B1; assay: self-cleavage kobs at 640 uM GlcN6P; higher = faster cleavage; RNA array
Procedure, shortened: as §1

[6] = variants of: B1; assay: self-cleavage kobs at 2500 uM GlcN6P; higher = faster cleavage; RNA array
Procedure, shortened: as §1

[7] = variants of: B1; assay: self-cleavage kobs at 10000 uM GlcN6P; higher = faster cleavage; RNA array
Procedure, shortened: as §1

Row | Variant | kcat [1] | KM [2] | self-cleavage kobs at 40 uM GlcN6P [3] | self-cleavage kobs at 160 uM GlcN6P [4] | self-cleavage kobs at 640 uM GlcN6P [5] | self-cleavage kobs at 2500 uM GlcN6P [6] | self-cleavage kobs at 10000 uM GlcN6P [7]
1 | AUAAAAGCGCCAGAAUUACAGAAAUGUAGUUGACGAGGAGGAGGUUUAUCGAAGUUUCGGCGGAUGCCUCCAAA | 0.0201 ± 0.0063 s⁻¹ | 1720 ± 730 µM | 0.000682 ± 0.00011 s⁻¹ | 0.00138 ± 0.00023 s⁻¹ | 0.00575 ± 0.00092 s⁻¹ | 0.0115 ± 0.0019 s⁻¹ | 0.0185 ± 0.0042 s⁻¹
2 | AUAAAAGCGCCAGAAUUACAGAAAUGUAGUUGACGAGGAGGAGGUUUAUCGAAUUGUCGGCGGAUGCGUCCAAA | 5.74e-05 ± 1.5e-05 s⁻¹ | – | – | – | 9.61e-05 ± 2.8e-05 s⁻¹ | – | 6.1e-05 ± 1.3e-05 s⁻¹
3 | AUAAAAGCGCCAGAAUUACAGAAAUGUAGUUGACGAGGAGGAGGUUUAUCGAAUUUUCGGCGGAGGGCUCCAAA | 0.0015 ± 8.8e-05 s⁻¹ | 1420 ± 160 µM | 3.76e-05 ± 1.7e-05 s⁻¹ | – | 0.000493 ± 0.00013 s⁻¹ | 0.000981 ± 0.00024 s⁻¹ | 0.00128 ± 0.00032 s⁻¹
4 | AUAAAAGCGCCAGAACUACAGAAAUUUAGUUGACGAGGAGGAGGUUUAUCGAAUUUUCGGCGGAUGGCUCCAAA | 0.000379 ± 7.2e-05 s⁻¹ | 901 ± 420 µM | – | – | 0.000245 ± 8.1e-05 s⁻¹ | 0.000254 ± 5.2e-05 s⁻¹ | 0.000395 ± 0.00012 s⁻¹
5 | AUAAAAGCGCCAGAAUUACAGAAAUGUAGUUGACGAGGAGGAGGUUUAUCGAAUUUUCGGCGGAAGCCUCCAAA | 0.00359 ± 0.00068 s⁻¹ | 2370 ± 610 µM | 7.34e-05 ± 1.2e-05 s⁻¹ | 0.000189 ± 2.9e-05 s⁻¹ | 0.000817 ± 0.00011 s⁻¹ | 0.00193 ± 0.00025 s⁻¹ | 0.00276 ± 0.00049 s⁻¹
6 | AUAAAAGCGCCAGAAUUACAGAAAUGUAGUUGACGAGGAGGAGGUUUAUCGAAUUUUCGGCGGAGGCCUCCAAA | 0.0044 ± 0.00062 s⁻¹ | 4300 ± 840 µM | 5.04e-05 ± 6.5e-06 s⁻¹ | 0.000151 ± 1.7e-05 s⁻¹ | 0.000544 ± 7.2e-05 s⁻¹ | 0.00147 ± 0.00018 s⁻¹ | 0.0032 ± 0.00028 s⁻¹
7 | AUAAAAGCGCCAGAACUAAAGAAAUGUAGUUGACGAGGAGGGGGUUUAUCGAAUUUUCGGCGGAUGCCUCCAAA | 0.00828 ± 0.0016 s⁻¹ | 164 ± 59 µM | 0.00166 ± 0.00056 s⁻¹ | – | 0.00596 ± 0.0022 s⁻¹ | – | –
8 | AUAAAAGCGCCAGAAUUACAGAAAUGUAGUUGACGAGGAGGAGGUUUAUCGAAUUUUCGGCGGAUGCCGCCAAA | 6.57e-05 ± 1.1e-05 s⁻¹ | – | – | 5.84e-05 ± 1.4e-05 s⁻¹ | 9.02e-05 ± 2.1e-05 s⁻¹ | 8.96e-05 ± 1.1e-05 s⁻¹ | 5.34e-05 ± 6.6e-06 s⁻¹
9 | AUAAAAGCGCCAGAAUUACAGAAAUGUAGUUGACGAGGAGGAGGUUGAUCGUAUUUUCGGCGGAUGCCUCCAAA | 0.000133 ± 8.3e-06 s⁻¹ | 1230 ± 200 µM | – | – | 4.73e-05 ± 1.3e-05 s⁻¹ | 8.23e-05 ± 2.3e-05 s⁻¹ | 0.000122 ± 2.5e-05 s⁻¹
10 | AUAAAAGCGCCAGAAUUACAGAAAUGUAGUUGACGAGGAGGAGGUUUAUCGAACUUUCGGCGGAUGCCCCCAAA | 0.0043 ± 0.0021 s⁻¹ | – | 0.000216 ± 7.7e-05 s⁻¹ | – | 0.000965 ± 0.00017 s⁻¹ | 0.00258 ± 0.00059 s⁻¹ | 0.00361 ± 0.0013 s⁻¹
11 | AUAAAAGCGCCAGAAUUACAGAAAUGUAGUUGACGAGGAGGAGGUUUAUCGAAUUUGCGGCGGAUGCCUCCAAA | 7.51e-05 ± 1.3e-05 s⁻¹ | – | – | – | 3.61e-05 ± 1.3e-05 s⁻¹ | 4.22e-05 ± 8.4e-06 s⁻¹ | 7.03e-05 ± 1.1e-05 s⁻¹
12 | AUAAAAGCGCCAGAACUACAAAAAUGUAGUUGACGAGGAGGAGGUUUAUCGAAUUUUGGGCGGAUGCCGCUAAA | 4e-05 ± 1e-05 s⁻¹ | – | – | 5.48e-05 ± 1.6e-05 s⁻¹ | 4.19e-05 ± 1.7e-05 s⁻¹ | 3.42e-05 ± 1.6e-05 s⁻¹ | –
13 | AUAAAAGCGCCAGAACUACAGAAAUAUAGUUGACGAGGAGGAGGUUUAUCGAAUUUUCGGCGGAUGCCUCCAAA | 0.0116 ± 0.0035 s⁻¹ | – | 0.00121 ± 0.00035 s⁻¹ | 0.00345 ± 0.0008 s⁻¹ | 0.0112 ± 0.0022 s⁻¹ | 0.00852 ± 0.0022 s⁻¹ | –
14 | AUAAAAGCGCCAGAACUACAGAAAUUUAGUUGACGAGGAGGAGGUUUAUCGAAUUUUCGGCGGAUGCCUCCAAA | 0.0318 ± 0.01 s⁻¹ | 1200 ± 480 µM | 0.00112 ± 7.2e-05 s⁻¹ | 0.00324 ± 0.00048 s⁻¹ | 0.00931 ± 0.0012 s⁻¹ | 0.0179 ± 0.0032 s⁻¹ | 0.0456 ± 0.0065 s⁻¹
